Substrate: O=[N+]([O-])c1ccc(OP(=O)(O)O)cc1
Test: purified protein, by the assay type
Settings: other: substrate pNPP
[1] = Sts-2PGM(E481V), pH 5.0, 37 °C, pH 5.0
[2] = Sts-2PGM(E481V), pH 7.5, 37 °C, pH 7.5
[3] = Sts-2PGM(S552A/S582Y), pH 5.0, 37 °C, pH 5.0
[4] = Sts-2PGM(S552A/S582Y), pH 7.5, 37 °C, pH 7.5
[5] = Sts-2PGM(A446S/S552A), pH 7.5, 37 °C, pH 7.5
[6] = Sts-2PGM wild-type, pH 5.0, 37 °C, pH 5.0
[7] = Sts-2PGM wild-type, pH 7.5, 37 °C, pH 7.5
[8] = Sts-2PGM(Q372V/S582Y), pH 7.5, 37 °C, pH 7.5
[9] = Sts-1PGM, pH 5.0, 37 °C, pH 5.0
[10] = Sts-1PGM, pH 7.5, 37 °C, pH 7.5

B1: Sts-2PGM(E481V) (Mus musculus; E481V) (protein)
chain: ATISRRGILVVRHGERVDQVFGKSWLQQCTTADGKYYRPDLNFPRSLPRRSNGIKDFENDPPLSSCGIFQARLAGEALLDSGVRVTAVFASPALRCVQTAKHILEELKLEKKLKIRVEPGIFEWMKWVASKATLTFLTLEELKEANFNVDLDYRPALPRCSLMPAESYDQYVERCAVSMGQIINTCPQDMGITLIVSHSSALDSCTRPLLGLPPRECGDFAQLVRKIPSLGMCFCEENREDGKWDLVNPPVKTLTHGANSVFNWRNWISSN
[1]
  Km: 200 ± 20 µM
  kcat: 0.65 s⁻¹
  kcat/Km: 3100 M⁻¹ s⁻¹
[2]
  Km: 1000 ± 150 µM
  kcat: 0.15 s⁻¹
  kcat/Km: 150 M⁻¹ s⁻¹

B2: Sts-2PGM(S552A/S582Y) (Mus musculus; S552A/S582Y) (protein)
chain: ATISRRGILVVRHGERVDQVFGKSWLQQCTTADGKYYRPDLNFPRSLPRRSNGIKDFENDPPLSSCGIFQARLAGEALLDSGVRVTAVFASPALRCVQTAKHILEELKLEKKLKIRVEPGIFEWMKWEASKATLTFLTLEELKEANFNVDLDYRPALPRCSLMPAESYDQYVERCAVSMGQIINTCPQDMGITLIVSHASALDSCTRPLLGLPPRECGDFAQLVRKIPYLGMCFCEENREDGKWDLVNPPVKTLTHGANSVFNWRNWISSN
[3]
  Km: 620 ± 100 µM
  kcat: 2.9 s⁻¹
  kcat/Km: 4700 M⁻¹ s⁻¹
[4]
  Km: 1900 ± 200 µM
  kcat: 0.43 s⁻¹
  kcat/Km: 226 M⁻¹ s⁻¹

B3: Sts-2PGM(A446S/S552A) (Mus musculus; A446S/S552A) (protein)
chain: ATISRRGILVVRHGERVDQVFGKSWLQQCTTADGKYYRPDLNFPRSLPRRSNGIKDFENDPPLSSCGIFQARLAGEALLDSGVRVTAVFASPSLRCVQTAKHILEELKLEKKLKIRVEPGIFEWMKWEASKATLTFLTLEELKEANFNVDLDYRPALPRCSLMPAESYDQYVERCAVSMGQIINTCPQDMGITLIVSHASALDSCTRPLLGLPPRECGDFAQLVRKIPSLGMCFCEENREDGKWDLVNPPVKTLTHGANSVFNWRNWISSN
[5]
  Km: 640 ± 80 µM
  kcat: 0.27 s⁻¹
  kcat/Km: 420 M⁻¹ s⁻¹

B4: Sts-2PGM (Mus musculus) (protein)
chain: ATISRRGILVVRHGERVDQVFGKSWLQQCTTADGKYYRPDLNFPRSLPRRSNGIKDFENDPPLSSCGIFQARLAGEALLDSGVRVTAVFASPALRCVQTAKHILEELKLEKKLKIRVEPGIFEWMKWEASKATLTFLTLEELKEANFNVDLDYRPALPRCSLMPAESYDQYVERCAVSMGQIINTCPQDMGITLIVSHSSALDSCTRPLLGLPPRECGDFAQLVRKIPSLGMCFCEENREDGKWDLVNPPVKTLTHGANSVFNWRNWISSN
[6]
  Km: 1500 ± 80 µM
  kcat: 0.3 s⁻¹
  kcat/Km: 200 M⁻¹ s⁻¹
[7]
  Km: 2000 ± 130 µM
  kcat: 0.03 s⁻¹
  kcat/Km: 15 M⁻¹ s⁻¹

B5: Sts-2PGM(Q372V/S582Y) (Mus musculus; Q372V/S582Y) (protein)
chain: ATISRRGILVVRHGERVDVVFGKSWLQQCTTADGKYYRPDLNFPRSLPRRSNGIKDFENDPPLSSCGIFQARLAGEALLDSGVRVTAVFASPALRCVQTAKHILEELKLEKKLKIRVEPGIFEWMKWEASKATLTFLTLEELKEANFNVDLDYRPALPRCSLMPAESYDQYVERCAVSMGQIINTCPQDMGITLIVSHSSALDSCTRPLLGLPPRECGDFAQLVRKIPYLGMCFCEENREDGKWDLVNPPVKTLTHGANSVFNWRNWISSN
[8]
  Km: 700 ± 100 µM
  kcat: 0.4 s⁻¹
  kcat/Km: 571 M⁻¹ s⁻¹

B6: Sts-1PGM (Mus musculus) (protein)
chain: GPQKRCLFVCRHGERMDVVFGKYWLSQCFDAKGRYIRTNLNMPHSLPQRSGGFRDYEKDAPITVFGCMQARLVGEALLESNTVIDHVYCSPSLRCVQTAHNILKGLQQDNHLKIRVEPGLFEWTKWVAGSTLPAWIPPSELAAANLSVDTTYRPHIPVSKLAISESYDTYINRSFQVTKEIISECKSKGNNILIVAHASSLEACTCQLQGLSPQNSKDFVQMVRKIPYLGFCSCEELGETGIWQLTDPPILPLTHGPTGGFNWRETLLQE
[9]
  Km: 20 ± 9 µM
  kcat: 63.4 s⁻¹
  kcat/Km: 3.15e+06 M⁻¹ s⁻¹
[10]
  Km: 500 ± 60 µM
  kcat: 70 s⁻¹
  kcat/Km: 141000 M⁻¹ s⁻¹

— PMC2880635
